According to US20240116985A1, “STAPLED PEPTIDES AND METHODS THEREOF” (priority 2020, published 2024):
Starred links: 1 amine or outer side, 2 acyl side, 3 side chain; linkers in the order of their positions; H or OH if unused. Positions of bridges follow the written chain, without caps; N, C: chain ends. Non-standard residues stand in square brackets, D forms with d. Primed or numbered codes have the meaning given here. *: point of attachment. PyrS2″ = (S)-3-amino-1-((pent-4-en-1-yloxy)carbonyl)pyrrolidine-3-carboxylic acid (stapling residue), C=CCCCOC(=O)N1CC[C@@](N[*:1])(C(=O)[*:2])C1; B5(4) = 2,2-bis(4-pentenyl)glycine = 2-amino-2-(pent-4-en-1-yl)hept-6-enoic acid (stitching residue), C=CCCCC(CCCC=C)(N[*:1])C(=O)[*:2]; B5(5) = 2,2-bis(4-pentenyl)glycine, 2-amino-2-(pent-4-en-1-yl)hept-6-enoic acid (stitching residue), C=CCCCC(CCCC=C)(N[*:1])C(=O)[*:2]; TfeGA = (S)-2-amino-3-((carboxymethyl)(2,2,2-trifluoroethyl)amino)propanoic acid, O=C([C@H](CN(CC(=O)[*:3])CC(F)(F)F)N[*:1])[*:2]; PyrS2 = (S)-3-amino-1-((pent-4-en-1-yloxy)carbonyl)pyrrolidine-3-carboxylic acid, C=CCCCOC(=O)N1CC[C@@](N[*:1])(C(=O)[*:2])C1; B5(3) = 2,2-bis(4-pentenyl)glycine (stitching residue), C=CCCCC(CCCC=C)(N[*:1])C(=O)[*:2]; B5 = 2-amino-2-(pent-4-en-1-yl)hept-6-enoic acid, C=CCCCC(CCCC=C)(N[*:1])C(=O)[*:2]; Phe(2-Cl) = N[C@@H](Cc1ccccc1Cl)C(=O)O; Phe(2-OMe) = COc1ccccc1C[C@H](N)C(=O)O; 1Nal = N[C@@H](Cc1cccc2ccccc12)C(=O)O; 2Nal = N[C@@H](Cc1ccc2ccccc2c1)C(=O)O; Phe(2-F) = N[C@@H](Cc1ccccc1F)C(=O)O; Bta = N[C@@H](Cc1csc2ccccc12)C(=O)O; αAllylPro = C=CC[C@@]1(C(=O)O)CCCN1; tBuAla = CC(C)(C)C[C@H](N)C(=O)O; 3Thi = N[C@@H](Cc1ccsc1)C(=O)O; Cha = N[C@@H](CC1CCCCC1)C(=O)O; S8 = C=CCCCCCC[C@](C)(N)C(=O)O; hLeu = CC(C)CC[C@H](N)C(=O)O; Prolinol = OC[C@@H]1CCCN1*; hSer = N[C@@H](CCO)C(=O)O; Nle = CCCC[C@H](N)C(=O)O; Dap = NC[C@H](N)C(=O)O; Aib = CC(C)(N)C(=O)O; Ms = CS(=O)(=O)*

B1: I-737 (peptide)
peptide: Ac-[αAllylPro]DL[B5(5)]DEAAFN[S8]F[Bta]Q[Aib]-NH2
modifications: staple 1-4, 4-11; also: later-eluting staple isomer
B2: I-556 (peptide)
peptide: Ac-[αAllylPro]DI[B5(4)]DDAAFN[S8][3Thi][Bta]H-NH2
modifications: staple 1-4, 4-11
B3: I-533 (peptide)
peptide: Ac-[αAllylPro]DA[B5(4)]D[Dap](Ms)AAFN[S8]F[Bta]Q-NH2
modifications: staple 1-4, 4-11
B4: I-555 (peptide)
peptide: Ac-[αAllylPro]DI[B5(4)]DDAAFN[S8][3Thi][Bta]H-NH2
modifications: staple 1-4, 4-11
B5: I-728 (peptide)
peptide: Ac-[αAllylPro]DI[B5(4)]DEAA[Nle]Q[S8]F[Bta]Q-NH2
modifications: staple 1-4, 4-11
B6: I-727 (peptide)
peptide: Ac-[αAllylPro]DI[B5(4)]DEAA[tBuAla]Q[S8]F[Bta]Q-NH2
modifications: staple 1-4, 4-11
B7: I-545 (peptide)
peptide: Ac-[αAllylPro]D[hLeu][B5(4)]DEAAFQ[S8]F[Bta]Q-NH2
modifications: staple 1-4, 4-11
B8: I-552 (peptide)
peptide: Ac-[αAllylPro]DI[B5(4)]DDAAFN[S8][3Thi][Bta]Q-NH2
modifications: staple 1-4, 4-11
B9: I-743 (peptide)
peptide: Ac-[αAllylPro]DL[B5(5)]DEAAFN[S8]F[Bta]H[Aib]-NH2
modifications: staple 1-4, 4-11
B10: I-534 (peptide)
peptide: Ac-[αAllylPro][Dap](Ms)A[B5(4)]DEAAFN[S8]F[Bta]Q-NH2
modifications: staple 1-4, 4-11
B11: I-544 (peptide)
peptide: Ac-[αAllylPro]D[tBuAla][B5(4)]DEAAFQ[S8]F[Bta]Q-NH2
modifications: staple 1-4, 4-11
B12: I-551 (peptide)
peptide: Ac-[αAllylPro]DI[B5(4)]DDAAFN[S8][3Thi][Bta]Q-NH2
modifications: staple 1-4, 4-11
B13: I-736 (peptide)
peptide: Ac-[αAllylPro]DL[B5(5)]DEAAFN[S8]F[Bta]Q[Aib]-NH2
modifications: staple 1-4, 4-11; also: earlier-eluting staple isomer
B14: I-1084 (peptide)
peptide: Ac-[αAllylPro]D[tBuAla][B5(4)]DDAAFN[PyrS2″][Phe(2-Cl)][Bta]-Prolinol
modifications: staple 1-4, 4-11
B15: I-1098 (peptide)
peptide: Ac-[αAllylPro]D[tBuAla][B5(5)]DEAAFL[S8][Phe(2-Cl)][Bta][dT]-NH2
modifications: staple 1-4, 4-11
B16: I-1094 (peptide)
peptide: Ac-[αAllylPro]D[tBuAla][B5(4)]DEAAFT[S8][Phe(2-Cl)][Bta][dT]-NH2
modifications: staple 1-4, 4-11; also: later eluting HPLC peak staple isomer composition
B17: I-1093 (peptide)
peptide: Ac-[αAllylPro]D[tBuAla][B5(4)]DEAAFT[S8][Phe(2-Cl)][Bta][dT]-NH2
modifications: staple 1-4, 4-11; also: earlier eluting HPLC peak staple isomer composition
B18: I-1107 (peptide)
peptide: Ac-[αAllylPro]D[Cha][B5(3)]DDAAF[Cha][PyrS2″][Phe(2-Cl)][Bta]Q-NH2
modifications: staple 1-4, 4-11
B19: I-1103 (peptide)
peptide: Ac-[αAllylPro]D[tBuAla][B5(3)]DDAAFS[PyrS2″][Phe(2-OMe)][Bta]S-NH2
modifications: staple 1-4, 4-11
B20: I-1096 (peptide)
peptide: Ac-[αAllylPro]D[tBuAla][B5(3)]DEAAFL[S8][Phe(2-Cl)][Bta]Q-NH2
modifications: staple 1-4, 4-11
B21: I-1112 (peptide)
peptide: Ac-[αAllylPro]D[Cha][B5(5)]DDAAFL[PyrS2″][Phe(2-Cl)][Bta]S-NH2
modifications: staple 1-4, 4-11
B22: I-1101 (peptide)
peptide: Ac-[αAllylPro]D[tBuAla][B5(3)]DDAAFS[PyrS2″][Phe(2-F)][Bta]S-NH2
modifications: staple 1-4, 4-11
B23: I-1104 (peptide)
peptide: Ac-[αAllylPro]D[Cha][B5(3)]DDAAFS[PyrS2″][Phe(2-OMe)][Bta]S-NH2
modifications: staple 1-4, 4-11
B24: I-1108 (peptide)
peptide: Ac-[αAllylPro]D[1Nal][B5(3)]DDAAFS[PyrS2″][Phe(2-Cl)][Bta]Q-NH2
modifications: staple 1-4, 4-11
B25: I-1100 (peptide)
peptide: Ac-[αAllylPro]D[Cha][B5(3)]DDAAFS[PyrS2″]F[Bta]S-NH2
modifications: staple 1-4, 4-11
B26: I-1109 (peptide)
peptide: Ac-[αAllylPro]D[2Nal][B5(3)]DDAAFS[PyrS2″][Phe(2-Cl)][Bta]Q-NH2
modifications: staple 1-4, 4-11
B27: I-1102 (peptide)
peptide: Ac-[αAllylPro]D[Cha][B5(3)]DDAAFS[PyrS2″][Phe(2-F)][Bta]S-NH2
modifications: staple 1-4, 4-11
B28: I-951 (peptide)
peptide: Ac-[αAllylPro]D[tBuAla][B5]D[TfeGA]AAFN[PyrS2][3Thi][Bta][hSer]-NH2
modifications: staple 1-4, 4-11; also: later-eluting staple isomer composition
B29: I-947 (peptide)
peptide: Ac-[αAllylPro]D[tBuAla][B5(5)]D[TfeGA]AAFN[PyrS2″][3Thi][Bta]L-NH2
modifications: staple 1-4, 4-11; also: staple isomer composition, later-eluting HPLC peak
B30: I-948 (peptide)
peptide: Ac-[αAllylPro]D[tBuAla][B5(5)]D[TfeGA]AAFN[PyrS2″][3Thi][Bta][dT]-NH2
modifications: staple 1-4, 4-11; also: staple isomer composition, earlier-eluting HPLC peak
B31: I-950 (peptide)
peptide: Ac-[αAllylPro]D[tBuAla][B5(4)]D[TfeGA]AAFN[PyrS2″][3Thi][Bta][hSer]-NH2
modifications: staple 1-4, 4-11; also: earlier-eluting staple isomer composition
B32: I-946 (peptide)
peptide: Ac-[αAllylPro]D[tBuAla][B5(5)]D[TfeGA]AAFN[PyrS2″][3Thi][Bta]L-NH2
modifications: staple 1-4, 4-11; also: staple isomer composition, earlier-eluting HPLC peak
B33: I-949 (peptide)
peptide: Ac-[αAllylPro]D[tBuAla][B5(5)]D[TfeGA]AAFN[PyrS2″][3Thi][Bta][dT]-NH2
modifications: staple 1-4, 4-11; also: staple isomer composition, later-eluting HPLC peak

target: full-length beta-Catenin (Uniprot ID P35222) (Homo sapiens (Human)) (UniProt P35222); assay: fluorescence polarization competition; full-length beta-catenin with 5FAM-labeled TCF4 residues 10-53 probe as competitor
Target sequence in this assay (P35222 whole entry, the tested form may be a part): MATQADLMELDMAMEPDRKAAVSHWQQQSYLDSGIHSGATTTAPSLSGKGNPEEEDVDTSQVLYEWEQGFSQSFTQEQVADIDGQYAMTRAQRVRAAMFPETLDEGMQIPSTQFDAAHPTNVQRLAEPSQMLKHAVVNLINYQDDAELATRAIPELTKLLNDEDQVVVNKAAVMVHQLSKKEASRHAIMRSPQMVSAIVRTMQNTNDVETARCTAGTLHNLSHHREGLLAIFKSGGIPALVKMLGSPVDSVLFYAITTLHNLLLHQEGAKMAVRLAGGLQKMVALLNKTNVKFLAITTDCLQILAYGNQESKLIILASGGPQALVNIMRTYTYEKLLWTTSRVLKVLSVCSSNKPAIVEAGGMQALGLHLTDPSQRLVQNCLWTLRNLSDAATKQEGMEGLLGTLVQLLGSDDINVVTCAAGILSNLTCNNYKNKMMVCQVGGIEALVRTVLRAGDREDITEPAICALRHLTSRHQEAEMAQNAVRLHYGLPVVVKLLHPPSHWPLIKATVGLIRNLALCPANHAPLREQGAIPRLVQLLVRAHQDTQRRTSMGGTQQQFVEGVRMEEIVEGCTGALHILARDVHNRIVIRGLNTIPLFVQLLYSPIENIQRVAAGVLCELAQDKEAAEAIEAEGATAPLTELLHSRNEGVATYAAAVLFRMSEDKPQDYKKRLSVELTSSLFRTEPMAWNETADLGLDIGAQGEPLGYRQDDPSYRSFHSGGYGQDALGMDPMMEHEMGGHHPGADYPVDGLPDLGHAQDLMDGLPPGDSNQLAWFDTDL

Row | EC50 [nM] | IC50 [nM] | Binder
1 | 353 | – | B1
2 | – | 20 | B2
3 | – | 155 | B3
4 | – | 41 | B4
5 | 289 | – | B5
6 | 5000 | – | B6
7 | – | 21 | B7
8 | – | 15.5 | B8
9 | 85 | – | B9
10 | – | 5000 | B10
11 | – | 24 | B11
12 | – | 45 | B12
13 | 440 | – | B13

target: full-length beta-Catenin (Uniprot ID P35222) (Homo sapiens (Human)) (UniProt P35222); assay: fluorescence polarization competition; peptide titrated against 10 nM full-length beta-catenin + 10 nM 5FAM-TCF4(10-53)
Target sequence in this assay (P35222 2-781 limits assumed): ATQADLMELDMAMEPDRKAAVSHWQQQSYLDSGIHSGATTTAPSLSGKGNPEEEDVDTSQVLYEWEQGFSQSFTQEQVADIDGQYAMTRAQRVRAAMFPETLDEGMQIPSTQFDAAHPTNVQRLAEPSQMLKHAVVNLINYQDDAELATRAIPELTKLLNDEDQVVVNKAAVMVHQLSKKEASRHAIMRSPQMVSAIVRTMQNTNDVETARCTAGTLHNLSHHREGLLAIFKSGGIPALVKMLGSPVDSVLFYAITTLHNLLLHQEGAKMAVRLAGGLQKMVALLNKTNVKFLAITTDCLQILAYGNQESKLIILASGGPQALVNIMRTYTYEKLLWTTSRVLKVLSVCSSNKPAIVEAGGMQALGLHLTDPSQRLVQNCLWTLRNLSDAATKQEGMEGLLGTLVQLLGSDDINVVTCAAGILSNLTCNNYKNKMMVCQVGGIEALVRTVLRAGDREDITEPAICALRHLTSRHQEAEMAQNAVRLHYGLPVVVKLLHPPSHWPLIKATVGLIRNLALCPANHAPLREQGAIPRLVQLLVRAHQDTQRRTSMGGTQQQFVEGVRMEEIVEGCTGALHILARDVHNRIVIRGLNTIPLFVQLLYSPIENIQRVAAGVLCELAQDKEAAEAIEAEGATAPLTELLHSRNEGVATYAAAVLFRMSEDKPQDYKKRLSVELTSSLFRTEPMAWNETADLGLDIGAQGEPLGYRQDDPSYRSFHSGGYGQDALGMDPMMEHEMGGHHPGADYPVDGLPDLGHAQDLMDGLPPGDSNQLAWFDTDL

Row | IC50 [nM] | Binder
14 | 368 | B14

target: full-length beta-Catenin (Uniprot ID P35222) (Homo sapiens (Human)) (UniProt P35222); assay: fluorescence polarization competition; displacement of 5FAM-TCF4(10-53) from full-length beta-catenin
Target sequence in this assay (P35222 whole entry, the tested form may be a part): as the sequence (P35222 whole entry, the tested form may be a part) above

Row | IC50 [nM] | EC50 [nM] | Binder
15 | 100 | – | B15
16 | 46 | – | B16
17 | 43 | – | B17
18 | 18 | – | B18
19 | – | 20 | B2
20 | – | 41 | B4
21 | 15 | – | B19
22 | – | 21 | B7
23 | 17 | – | B20
24 | 40 | – | B21
25 | – | 15.5 | B8
26 | 14 | – | B22
27 | – | 24 | B11
28 | 10 | – | B23
29 | 18 | – | B24
30 | 16 | – | B25
31 | 24 | – | B26
32 | 16 | – | B27
33 | – | 45 | B12

target: full-length beta-Catenin (Uniprot ID P35222) (Homo sapiens (Human)) (UniProt P35222); assay: fluorescence polarization competition; full-length beta-catenin, 5FAM-TCF4(10-53) probe
Target sequence in this assay (P35222 2-781 limits assumed): as the sequence (P35222 2-781 limits assumed) above

Row | IC50 [nM] | Binder
34 | 1470 | B28
35 | 1050 | B29
36 | 2430 | B30
37 | 1630 | B31
38 | 798 | B32
39 | 2260 | B33

target: full-length beta-Catenin (Uniprot ID P35222) (Homo sapiens (Human)) (UniProt P35222); assay: fluorescence polarization competition; full-length beta-catenin, competitor 5FAM-TCF4(10-53) probe
Target sequence in this assay (P35222 whole entry, the tested form may be a part): as the sequence (P35222 whole entry, the tested form may be a part) above

Row | IC50 [nM] | Binder
40 | 353 | B1
41 | 289 | B5
42 | 5000 | B6
43 | 85 | B9
44 | 440 | B13

target: full-length beta-Catenin (Uniprot ID P35222) (Homo sapiens (Human)) (UniProt P35222); assay: fluorescence polarization competition; full-length beta-catenin + 5FAM-TCF4(10-53) probe as competitor
Target sequence in this assay (P35222 2-781 limits assumed): as the sequence (P35222 2-781 limits assumed) above

Row | EC50 [nM] | Binder
45 | 100 | B15
46 | 46 | B16
47 | 43 | B17
48 | 18 | B18
49 | 368 | B14
50 | 15 | B19
51 | 17 | B20
52 | 40 | B21
53 | 14 | B22
54 | 10 | B23
55 | 18 | B24
56 | 16 | B25
57 | 24 | B26
58 | 16 | B27

target: full-length beta-Catenin (Uniprot ID P35222) (Homo sapiens (Human)) (UniProt P35222); assay: fluorescence polarization competition; 10 nM full-length beta-catenin + 10 nM 5FAM-TCF4(10-53) probe
Target sequence in this assay (P35222 whole entry, the tested form may be a part): as the sequence (P35222 whole entry, the tested form may be a part) above

Row | EC50 [nM] | Binder
59 | 155 | B3
60 | 1470 | B28
61 | 1050 | B29
62 | 2430 | B30
63 | 1630 | B31
64 | 5000 | B10
65 | 798 | B32
66 | 2260 | B33
